Measured values reported in paper PMC9929448, “Structural analysis of the interaction between human cytokine BMP-2 and the antagonist Noggin reveals molecular details of cell chondrogenesis inhibition” (The Journal of Biological Chemistry, 2023).

Target: the molecule itself
Assay: intact protein mass determination (UHPLC-HRMS); reverse-phase C4 column, water/acetonitrile with 0.1% formic acid, electrospray, QTof; covalent (disulphide) dimer

B1: Noggin (residues 28-232) (natural protein)
chain: MQHYLHIRPAPSDNLPLVDLIEHPDPIFDPKEKDLNETLLRSLLGGHYDPGFMATSPPEDRPGGGGGAAGGAEDLAELDQLLRQRPSGAMPSEIKGLEFSEGLAQGKKQRLSKKLRRKLQMWLWSQTFCPVLYAWNDLGSRFWPRYVKVGSCFSKRSCSVPEGMVCKPSKSVHLTVLRWRCQRRGGQRCGWIPIQYPIISECKCSC
modifications: biotin (biotinylated Noggin in the BLI experiments); methionine oxidation, mainly on the N-terminal methionine, in part of the sample
notes: Noggin, residues 28-232 of UniProt Q13253; Disulphide-linked homodimer; No tag (pET-17(b)); for the crystal, SEC-MALS and cell assays no biotinylation is mentioned; also called antagonist Noggin; recombinant Noggin
Question: How did the “stoichiometry N” value turn out when B1 was run?
Answer: Its value is 2.
